Among the data in article PMC11407943, “Cdc14 phosphatases use an intramolecular pseudosubstrate motif to stimulate and regulate catalysis” (The Journal of Biological Chemistry, 2024) are Km values, retold here.

In this data set the test system is T1, Cc1cc(=O)oc2c(F)c(OP(=O)(O)O)c(F)cc12.
T1 construct: codons 1-411; N-terminal GST; expressed in E. coli
The class given is biochemical. As to conditions: pH 7.5; 30.0 °C. The source says: Enzym e kcat (sec-1) KM (µM)

Take “hCdc14B^3A (Homo sapiens; K435A/L431A/R432A)”: the Km is 1.68 µM.

Broadly, the Km is the concentration of substrate that gives half-maximal velocity.
